Target: Vasna-Cd4d3+4-bio (zebrafish)
Experiment: SPR; BIAcore; Vasna-Cd4d3+4-bio immobilised on a streptavidin-coated sensor chip at high and low levels, Cd4d3+4-bio as reference; Islr2-Cd4d3+4-6xHis injected in serial dilutions; HBS-EP buffer, 28 °C; 20 μl/min for equilibrium, 100 μl/min for kinetics (7, 14, 28 μM); purification of the Vasna bait before capture not given

- Kd: 12.4 µM
- half-life: 0.16 s
- koff: 4.3 s⁻¹
Substance: Islr2-Cd4d3+4-6xHis (domain or fragment)

Source: PMC4618557
